Data: publication PMC9331583

Biological target: apolipoprotein E (human (endogenous in Huh7.5 and HMC3)) (UniProt P02649)
Chain of UniProt P02649 (P02649 19-317): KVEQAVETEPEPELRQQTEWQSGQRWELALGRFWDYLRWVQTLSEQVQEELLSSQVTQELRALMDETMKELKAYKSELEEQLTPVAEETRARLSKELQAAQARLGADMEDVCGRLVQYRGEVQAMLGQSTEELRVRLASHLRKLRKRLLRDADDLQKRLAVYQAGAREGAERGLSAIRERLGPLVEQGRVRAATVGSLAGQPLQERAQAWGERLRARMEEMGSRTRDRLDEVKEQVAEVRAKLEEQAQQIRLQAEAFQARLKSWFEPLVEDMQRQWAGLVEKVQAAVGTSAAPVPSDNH

“Zika envelope glycoprotein (natural protein)” was tested, and the decrease in infection of Huh7.5 cells (percent of cells positive for ZIKV envelope by FACS, relative to isotype Abs) by ZIKV particles pre-incubated with goat anti-ApoE Abs at 1.5 and 10 μg/mL was 60%.
